Results as given in IntAct's records for PubMed 17318191.

B1: Catenin beta-1 (Homo sapiens), P35222 (parent)
chain: MATQADLMELDMAMEPDRKAAVSHWQQQSYLDSGIHSGATTTAPSLSGKGNPEEEDVDTSQVLYEWEQGFSQSFTQEQVADIDGQYAMTRAQRVRAAMFPETLDEGMQIPSTQFDAAHPTNVQRLAEPSQMLKHAVVNLINYQDDAELATRAIPELTKLLNDEDQVVVNKAAVMVHQLSKKEASRHAIMRSPQMVSAIVRTMQNTNDVETARCTAGTLHNLSHHREGLLAIFKSGGIPALVKMLGSPVDSVLFYAITTLHNLLLHQEGAKMAVRLAGGLQKMVALLNKTNVKFLAITTDCLQILAYGNQESKLIILASGGPQALVNIMRTYTYEKLLWTTSRVLKVLSVCSSNKPAIVEAGGMQALGLHLTDPSQRLVQNCLWTLRNLSDAATKQEGMEGLLGTLVQLLGSDDINVVTCAAGILSNLTCNNYKNKMMVCQVGGIEALVRTVLRAGDREDITEPAICALRHLTSRHQEAEMAQNAVRLHYGLPVVVKLLHPPSHWPLIKATVGLIRNLALCPANHAPLREQGAIPRLVQLLVRAHQDTQRRTSMGGTQQQFVEGVRMEEIVEGCTGALHILARDVHNRIVIRGLNTIPLFVQLLYSPIENIQRVAAGVLCELAQDKEAAEAIEAEGATAPLTELLHSRNEGVATYAAAVLFRMSEDKPQDYKKRLSVELTSSLFRTEPMAWNETADLGLDIGAQGEPLGYRQDDPSYRSFHSGGYGQDALGMDPMMEHEMGGHHPGADYPVDGLPDLGHAQDLMDGLPPGDSNQLAWFDTDL

Variants of: B1
Details: with axin1_human AXIN1, O15169
Sequence of axin1_human AXIN1, O15169 (O15169 whole entry): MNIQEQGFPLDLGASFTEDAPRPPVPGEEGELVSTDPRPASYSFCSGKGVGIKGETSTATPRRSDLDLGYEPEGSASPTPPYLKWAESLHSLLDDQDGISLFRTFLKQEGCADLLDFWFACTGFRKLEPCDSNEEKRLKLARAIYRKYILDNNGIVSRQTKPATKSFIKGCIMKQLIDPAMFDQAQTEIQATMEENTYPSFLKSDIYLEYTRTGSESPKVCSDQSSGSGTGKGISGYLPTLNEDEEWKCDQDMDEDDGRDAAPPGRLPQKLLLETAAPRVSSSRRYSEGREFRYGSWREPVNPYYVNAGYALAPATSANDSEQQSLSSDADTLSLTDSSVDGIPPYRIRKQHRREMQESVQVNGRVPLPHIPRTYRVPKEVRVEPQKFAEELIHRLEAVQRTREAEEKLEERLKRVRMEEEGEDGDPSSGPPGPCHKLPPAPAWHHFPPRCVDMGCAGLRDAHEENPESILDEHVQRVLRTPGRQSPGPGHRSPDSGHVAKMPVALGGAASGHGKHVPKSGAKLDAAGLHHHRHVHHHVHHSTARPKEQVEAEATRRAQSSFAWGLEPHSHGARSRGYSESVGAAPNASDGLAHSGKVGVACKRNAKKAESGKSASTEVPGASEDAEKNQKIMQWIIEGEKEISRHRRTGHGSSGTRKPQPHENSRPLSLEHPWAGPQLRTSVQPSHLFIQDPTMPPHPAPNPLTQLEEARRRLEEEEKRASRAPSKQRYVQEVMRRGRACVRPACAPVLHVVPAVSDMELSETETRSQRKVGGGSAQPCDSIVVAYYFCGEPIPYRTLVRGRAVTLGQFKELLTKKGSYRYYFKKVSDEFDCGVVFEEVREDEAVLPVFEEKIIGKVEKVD

Variant | effect of a mutation on the interaction
Y654F | decreasing interaction
Y142F | disrupting interaction
